For the experiment, the target named is T1, insulin receptor isoform A (IR-A) from lysates of R-/IR-A cells (UniProt P06213-2 28-1370).
T1 construct: Whole receptor in the lysate of R- fibroblasts stably transfected with IR-A cDNA
Kind of experiment: immunoprecipitation from R-/IR-A cell lysate, SDS-PAGE, immunoblot with anti-IR beta-subunit. For orientation: In western blotting, separated proteins are transferred to a membrane and probed.

T1 sequence (P06213 other isoform, or with tags, fused parts or gaps limits assumed): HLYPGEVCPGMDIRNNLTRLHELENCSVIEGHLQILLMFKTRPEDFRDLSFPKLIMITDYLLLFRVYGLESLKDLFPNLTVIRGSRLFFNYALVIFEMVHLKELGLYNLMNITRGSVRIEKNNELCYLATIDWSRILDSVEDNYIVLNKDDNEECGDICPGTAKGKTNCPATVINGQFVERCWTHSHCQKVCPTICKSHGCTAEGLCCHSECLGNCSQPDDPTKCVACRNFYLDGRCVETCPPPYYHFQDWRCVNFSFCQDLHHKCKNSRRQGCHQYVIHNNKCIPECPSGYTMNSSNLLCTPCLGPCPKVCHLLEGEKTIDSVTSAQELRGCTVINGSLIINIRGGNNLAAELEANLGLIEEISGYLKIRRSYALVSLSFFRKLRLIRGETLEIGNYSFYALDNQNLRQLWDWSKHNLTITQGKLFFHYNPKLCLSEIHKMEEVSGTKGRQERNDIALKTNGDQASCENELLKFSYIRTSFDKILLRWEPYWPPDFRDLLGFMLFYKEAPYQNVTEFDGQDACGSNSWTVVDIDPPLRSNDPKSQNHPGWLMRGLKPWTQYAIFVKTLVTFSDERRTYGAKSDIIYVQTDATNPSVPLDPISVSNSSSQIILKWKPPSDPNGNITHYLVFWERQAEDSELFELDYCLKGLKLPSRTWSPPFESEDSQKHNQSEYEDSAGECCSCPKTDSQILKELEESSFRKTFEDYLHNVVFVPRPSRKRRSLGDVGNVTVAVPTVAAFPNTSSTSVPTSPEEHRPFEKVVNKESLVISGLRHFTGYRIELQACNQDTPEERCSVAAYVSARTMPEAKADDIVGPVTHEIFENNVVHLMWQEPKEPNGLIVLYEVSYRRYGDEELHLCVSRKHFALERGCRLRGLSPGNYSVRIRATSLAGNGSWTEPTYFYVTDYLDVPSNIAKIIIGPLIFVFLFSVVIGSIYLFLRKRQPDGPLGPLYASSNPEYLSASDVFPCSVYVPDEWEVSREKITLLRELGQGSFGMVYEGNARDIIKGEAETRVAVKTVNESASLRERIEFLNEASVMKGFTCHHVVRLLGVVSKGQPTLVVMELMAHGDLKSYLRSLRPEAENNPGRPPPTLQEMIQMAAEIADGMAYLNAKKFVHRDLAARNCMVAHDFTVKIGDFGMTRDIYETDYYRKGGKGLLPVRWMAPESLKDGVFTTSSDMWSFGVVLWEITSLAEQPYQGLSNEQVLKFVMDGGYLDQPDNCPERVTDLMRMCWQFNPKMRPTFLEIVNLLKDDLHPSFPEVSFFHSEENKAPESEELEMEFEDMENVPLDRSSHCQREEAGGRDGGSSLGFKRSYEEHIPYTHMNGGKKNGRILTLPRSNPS

B1: humanized antibody h7C10 (humanized form 1 of 7C10: humanized 7C10 VH 1 with humanized 7C10 VL 1) (antibody, V domains shown)
VH: QVQLQESGPGLVKPSETLSLTCTVSGYSITGGYLWNWIRQPPGKGLEWMGYISYDGTNNYKPSLKDRITISRDTSKNQFSLKLSSVTAADTAVYYCARYGRVFFDYWGQGTLVTVSS
VL: DVVMTQSPLSLPVTPGEPASISCRSSQSIVHSNGNTYLQWYLQKPGQSPQLLIYKVSNRLYGVPDRFSGSGSGTDFTLKISRVEAEDVGVYYCFQGSHVPWTFGQGTKVEIK
notes: Human IgG1/kappa; also called 7H2HM; A2CHM
With B1, the binding result is given as “no binding”.

Values taken from patent US20050249730A1 (PIERRE FABRE MEDICAMENT, published 2005).
